experiment: soluble on expression in E. coli; label from the status in PepcDB or PDB records

Soluble on expression in E. coli, not soluble:
MGSDKIHHHHHHMKFCIIGYPVRHSISPRLYNEYFKRAGMNHSYGMEEIPPESFDTEIRRILEEYDGFNATIPHKERVMRYVEPSEDAQRIKAVNCVFRGKGYNTDWVGVVKSLEGVEVKEPVVVVGAGGAARAVIYALLQMGVKDIWVVNRTIERAKALDFPVKIFSLDQLDEVVKKAKSLFNTTSVGMKGEELPVSDDSLKNLSLVYDVIYFDTPLVVKARKLGVKHIIKGNLMFYYQAMENLKIWGIYDEEVFKEVFGEVLK, MGSDKIHHHHHHMKFIVTPDIFEKLPDMYVGVVVAKGIDNSKNYPEIDRLLNRYMKYSQQKFDGINVKQNDEIIPYREAFRKIGINPNRYPCSAEALFKRLSKGKNLPHINPLVNLNNAISLKYTVLMGTHSLDGVQDDIIMRLTKSGDNFVPLGKDEVEEPDEGEVVYAVGSDVCIRRWTWRQSEHSKITDQTHDVFFPIDGFVDVNRDAVDKAREDLVGKSKEIFGVETQVGYVDKNHPEFEWE, MGSDKIHHHHHHMKGIEIVNYGGPEVAKVRTFSSPVRRSGEVMIQVVASSINPVDIKYMTPETIQKIPSFPAILGWDIAGIIIEADKNSNFSAGERVVAFHPQGSWQQLVTASENQVVKLPDNIDFISGGSIPLAASTALQALRRLRLEPGERLLVTGAAGSVGYYALQFALKMGVKASGLVRNKNQKMSINLLDTEIYTNDDPIPEFDAVFDTAGVLNRIDVIHKGGRLVTVSDEQIDPQVLKHTSFAEHNYVRVNKEDLEEIVHLVSEAKIETRVAKIYSFNNVQEALAQAIKSGNNGKVMLIF, MGSDKIHHHHHHMKIAISGKGGVGKTTLAATLAYLFARDGYRVTAIDCDADINLPSALGVKEKPKPLSELHEIIEKRVVGPMGTYKLNPKVDDVFEEYSVYNEDGVRVLVLGTIEKGGEGCFCPENAFLRAILRHAIFKREDVLILDMEAGIEHLGRGTARGVDLLIAVVEPGTRAVETLERIEKLGRDIGIERIAVVVNKFIESERARELISGIKYPILGVIHYDQCFVRADLENVPPYTVCDLKPFEEIKRRIEEFVQ, MGSDKIHHHHHHMKIDTLGVQAFVAIADGGSFRQAADTLHVTQTAITQRLRKLESFLGVALVERTTRRTTLTEIGRRFLPQARRLLNELSDALTEIRETGLSQRGDVTIACVPTVGVQYLPRILRAFSGHRPHDRVKILDHASASVLQAVLRREAEFGISIAGDQHPELVSVPLTHDPYVLVCRDDHPLAKRRRIRWAALQPHPLIFAGEVSGNRGLLDGALKTSGVSLHSFYEVQRSSTALGLVAEGLGAAVVPKLAVQKNAYPMIRTIELVEPSVSRTLVLVKRKAAQLSPAAQALYDMIVERATPGR, MGSDKIHHHHHHMKILAFGEVLLRMTVPEHLMLTQTDELRMSTVGTGVNLLSSLTHFGYRTRLLSRLPDNALGQRAAGELRRYGIQDDYVTFGGQHMGAYFVELGYGSRPERVTYQDRLSSAFCQQPPDDQEIAAALVGCQFVHICGITLSLTAPVRQAALRLAQQAHANGQRVCFDFNYRQQLNTGVAHETLKARYQEILPYVDIVFGSKRDLTALLDYPDDEDRTQSANRESEAALYEQFVRDYHIDYFAGSYRYQIGQQKWFAGFSYQHQQLVVGKARPLMILDRIGSGDAFASGIITALIEGWSLQKTTDFAIATAILAQATVNDAPEFTKEMVLADMASDGQLELIR, MGSDKIHHHHHHMKILFGPVSSRRFGRSLGIDLSPSKKQCNFDCVYCELDPKKAQEKQDEIISIDKIISEVKAMLEKNVEFDFLTLTANGEPSLYPYLNELILSLRSIAKDKKLLILSNGTAVLDEDKFNALLKLDVVKFSLDSAVAKTFYRIDRALKNIDLEKMIEKMADFRARFNGDLIMEILVVKDLNDNEEEFEALNQALKKIMPLRVDLSTIDRPPAYAVKKVSEEKLLELSKLIDSTPVLLAKRHYEGEKLSFNEEELLKMLHLRSQSEIDIEVKFDEQSKTLLNQLIKEKKVKILDLAGVKFYKV, MGSDKIHHHHHHMKILFLSHLDMNLYLFRRPIMEALRKEGHEVIAMCPKGEYFDRFKELGIKAISYEISRESLNPFKELKTLLSIAQKLSELKPDILHTFMLKPNIYGTLASKIASIPYVICSVTGLGSFYIEESFKSRAIRYLIETLSRIVFKIAKKVVFQNEDDRQLFIQKGLVESSKTHLIKGSGINTKLFDPALISPSTLVRYRQELGLEKKHVVLMVARAIAHKGVREYYEAARLLGAFTSDSHLAFLFVGDTDEGNPSCVSSKELYSPHVLWLGHREDILELMALCDIFVLPSYREGIPRTLLEASSLAKPMVTSLAVGCKEVVKEGENGFLVPVGDTKALAQKIHYLVQNPALRLSMGEKARQIAQKEFDVSIIVKAHLELYKEVRGDLQKTL, MGSDKIHHHHHHMKIRVDIIGLKGGVGKTTIALNTALYLSKRYKVLYIDKDLLSMGSLILGFNGLGFNKAIVEGLGNEQYEYKVNNNLTLFKLYSDPVNERELQHKVKGMGEKAERAYVDVVSKGYDVIIVDYGRIFRTNDPLVYDEYEMFKKNFPDYTIAAAGITDAIRNDVTDVVKYFLDTINRIKAKPLAFVINMVPQIGDIQKEINQIVREISEVVKCDILTIPFNEKLVQYANMGEVEEMQKVGKLIERILSNG, MGSDKIHHHHHHMKITIYSKDLYTYGAMLVGGILKETHKHNIKLIKDIKNKKLFLKSDIVILSLYSTLNIIDPVIKDTVDYLKSKNIKIYVAGPVSAYPEIILNELNVDGVILGEGELTTPEIINGSKDGLAYFENGEMIVNKPKSKPDLDFSKIYVPKDIAAQNVRGANVYIETHRGCLGHCTFCQVPEFFGRDIRSKPIELIIEEVNELKKNGVNRIAISGGTGSLYNFKNTVNKNKFIEMIESVSNIIGRQNLSVPDMRVDYVDEEVLNAIKNYSIGWVFYGIESGSDKLLNSMKKGTNSKKNLKAIELAKDCGVKVAGSFIVGHPKEKEVDFLMTKDFIVDAELDDVFVSAAEPIPKTELCTEVLNTKMDENPTFISHNGPYRRYGLKENEARAYDLMLHSEMWKSTPRVITTNLSKVYLDEAKMQGSDIRKATELIFKYRDFLI, MGSDKIHHHHHHMKITLHGVAETLLITLYIRAKDAMAKHPILNDQKSLAIVEQIEYDFDKFDNSEASFYATLARIRVMDREIKKFIRENPNSQILSIGCGLDTRFERVDNGQIRWYNLDLPEVMEIRKLFFEEHERVTNIAKSALDETWTREVNPQNAPFLIVSEGVLMFLKEDDVETFLHILTNSFSQFMAQFDLCHKEMINKGKQHDTVKYMDTEFQFGITDGHEIVDLDPKLKQINLINFTDEMSKFELGTLRSLLPTIRKFNNCLGVYEYKASEKK, MGSDKIHHHHHHMKITTVGLDIAKSVFHFVGVNKAGKLVKKKMIKRKDLLHFLAQIEPCLVVMEACGGANYWAREFEKVGHQVKLIAPQYVVPYRQGNKNDYNDALAIAEAAQRPNMRFVQPKPAEQQDIQMLHRMRERLSKQSTALVNQVRGMLAEYGIVITKGKASFRSKLPDILENADNELTAKGRSIFYQLYEEFNGIEERLKRCDNQVQQETKNNHVCQRLESVPGIGPVTATAFYAAVGEGKDFTNGRHFSAWCGLVPKQHSSGGKDNLLGISKRGNAYLRTLFIHGARAVLYHSDGKGDRFSRWAIALAERRGFNRACVAVANKLARIAWVIAAREDEYRMAV, MGSDKIHHHHHHMKKAVLIVNPSSGGEKAKEFETLAEEKLKQLFDEVVVKQTEKGGDAEQFAREAAESHFDSVFVMGGDGTVNEGISGLAEQAYRPKFGFFPLGTVNDLARALNLPMDPEEAIQQLDLEKTSALDVGKINDDYFMNVVAIGTIPESINDVDVEQKTKLGKLAYFISGAKHLANAQTYPFHLSLDQKEQTIESSTVLVGLTNSIGGFETLLPEAQVDDGKLHLVYLKDQSLWDAVKAVPDLLKGVDQSTDNLVYLTFKEGTISLENQEELTTNVDGDEGAALPITLKILPKHLTVYCGEEQTK, MGSDKIHHHHHHMKKFVCSNCGYVSPKWFGRCPQCGEYDTAEEVQRRKNREGSPSLFLNLEDAGEISLERLSTGFSELDRAFRGGIVPGQVILLSGEPGIGKSTIALQIAERFAERGLVVYVSGEESPQQLKLRADRLLLKRKKDILLTLENDIDEIISSLQNKRVSFMVVDSIQTVFSSDLGSSPGSISQVKNVTMKTIDFAKRRGVPVLLVGHVTKEGEIAGPKLVEHMVDTVAYFEGDRRTGLRLLKITKNRFGPSDEVAVFELKENGFVQVENPSFTEGDADLPGNVLTCVFEGTKPFVVQIQALVSKNRTFSPKRVCKGVDVNRVMLLIAVISKYLKLPIETHDVYVNVVGGLRVTDPAADLAIALSIVSSYLEVSLHNTAAVGEIGLDGRVRKVYNINRRLNSLKSSGRIIVPPIEEEQKGVFEVRDLKEAVSIIGGEILGTPGAD, MGSDKIHHHHHHMKKGIQLVALLLTVVMSSCTGGKDKAAVKQEDEKPRVKVADVTARPVDQIQDYTATVEAEVKNNIAPSSPVRIDRILVEVGDRVSKGQKLVQMDAANLTQTKLQLDNQKIEFNRIDELYKVGGASKSEWDAAKMQLDVKQTAYDNLVENTFLLSPINGVITARNYDNGDMYSGGSPVLVVEQITPVKLMINVSETYFTKVKKGEPVDVKLDVYGDELFKGTISLIYPTIDATTRTFQIEIKLDNKDQRVRPGMFARATLNFGTADNVVVPDLAIVKQAGSGDRYVYVYKDGKVSYNKVELGRRMGSEYELKSGVPDNSQVVVAGQARLINGTEVEIEK, MGSDKIHHHHHHMKKIAVLTSGGDAPGMNAAVRAVVRYGVRQGLEVIGVRRGYSGLIDGDFVKLEYKDVAGITEKGGTILRTSRCEEFKTEEGRELAAKQIKKHGIEGLVVIGGEGSLTGAHLLYEEHKIPVVGIPATIDNDIGLTDMCIGVDTCLNTVMDAVQKLKDTASSHERAFIVEVMGRHSGYIALMAGLVTGAEAIIVPEIPVDYSQLADRILEERRRGKINSIIIVAEGAASAYTVARHLEYRIGYETRITILGHVQRGGSPTAFDRRLALSMGVEAVDALLDGEVDVMIALQGNKFVRVPIMEALSTKKTIDKKLYEIAHMLS, MGSDKIHHHHHHMKKIGHRIKTRRKLKGLTQEALGLAVGVSKVSVSSWELGKNSMHPELLNKVAGVLGVDAHWLLTGESFATLEDEKDSVFWAPKYKNIKAAAGAGCCHDDCLDEDEDEVPIPIKFVKNQTNKDQIFCVCVSGDSMEPVLSDGSIIAMNSSDTIIKDGKMYLVKQDDLLRVKVIHLLPKDMVLKSYNPNFKDETYNIKKDNIQILGRVFWFTSGR, MGSDKIHHHHHHMKKLFVLFLAVLSVLVLAEVKNPDTIIDATIGEPDTLDPHFAYDTASGEVIYNVYENLIAYKGESLTEFEPRLAERWEILDDGKTYKFYIRKGVKFHEGGDLTPEDVEYSFERGLIFDPTAGPMWMLWEALFGVDSLETFVEEKIGKPYSELFDENGEPLPEYRDALIKIYTDYIDPAIEVEGDAVVFHLVRPFAPFMYILAQSASWSAVLDKEWCIEIGCWDGRADTWWKYHDIRKEDSPLYARMNGTGPFKFVEWDRAQQKVILERNDNYWREPAKIKRVIIWGIDEWSTRRAMFLQGDADICAVPTQYLEQVEGKPGVTVVKGLPELAVTSLHFAWNVPEDSKYIGSGKLDGNGIPPDFFSDENVRKAFIYAFDYDTFINEVLKGLGRKIPTDLPEGLLGFNEELLNDPDAPHFDIVKATEYFKKAWNGEVWKKGFKITLLYNTGNEVRRQAAEMLKAYIEMINPKFKVEVRGVQWPTYLDATKRGEVPAFIIGWLADYPDPHNFIFTYYHSAGVYSGRQGENFRKFVSTPHPDLGGRSLDELIEEAIAKTDPAERQALYEEIQRFAMKHALGMPLYQPLGVRVQRSWVKGWYHNPMRPGDDYYVLWKAEE
